# From the RNAGym collection of RNA variant scans (doi:10.7554/elife.80360)
# B1: Twister Ribozyme (parent)
# chain: AACACUGCCAAUGCCGGUCCCAAGCCCGGAUAAAAGUGGAGGGGGCGG
# Variants of: B1
# Experiment: self-cleavage, relative activity (ratio to wild type); higher = more cleavage; co-transcriptional
row,Variant,self-cleavage
1,AACACUGCCGAUGCCGGUCCCAAGUCCGGAUAAAAGUGGAGGGGGCGG,0.874
2,AACACUGCCGAUGCCGGUCCCAAGCCCGGAUAAAAGUGGAGGUGGCGG,0.576
3,AACACUGCCCAUGCCGGGCCCAAGCCCGGAUAAAAGUGGAGGGGGCGG,0.0601
4,AACACUGCCCAUGCCGGACCCAAGCCCGGAUAAAAGUGGAGGGGGCGG,0.455
5,AACACUGCCGAUGCCGGUGCCAAGCCCGGAUAAAAGUGGAGGGGGCGG,0.677
6,AACACUGCCCAUGCUGGUCCCAAGCCCGGAUAAAAGUGGAGGGGGCGG,0.942
7,AACACUGCCCAUGCAGGUCCCAAGCCCGGAUAAAAGUGGAGGGGGCGG,0.493
8,AACACUGCCCAUGCGGGUCCCAAGCCCGGAUAAAAGUGGAGGGGGCGG,0.0331
9,AACACUGCCGAUGCCGGCCCCAAGCCCGGAUAAAAGUGGAGGGGGCGG,0.807
10,AACACUGCCCAUCCCGGUCCCAAGCCCGGAUAAAAGUGGAGGGGGCGG,0.408
11,AACACUGCCCAUACCGGUCCCAAGCCCGGAUAAAAGUGGAGGGGGCGG,0.764
12,AACACUGCCGAUGCCGGUCCCAAGCCCGGAUAAAAUUGGAGGGGGCGG,0.823
13,AACACUGCCGAUGCCGGUCCCAAGCCCGGAUAAAAAUGGAGGGGGCGG,0.786
14,AACACUGCCGAUGCCGGUCCCAAGCCCGGAUAAAACUGGAGGGGGCGG,0.855
15,AACACUGCCCAUGCCGGUCCCAAGCCCGGAUAAAAGUGGAGGGGCCGG,0.661
16,AACACUGCCCAUGCCGGUCCCAAGCCCGGAUAAAAGUGGAGGGGACGG,0.881
17,AACACUGCCUAUGCCGGUCCCGAGCCCGGAUAAAAGUGGAGGGGGCGG,0.291
18,AACACUGCCUAUGCCGGUCCCUAGCCCGGAUAAAAGUGGAGGGGGCGG,0.829
19,AACACUGCCCAUGCCGGUCCCAAGCCCGGAAAAAAGUGGAGGGGGCGG,0.776
20,AACACUGCCCAUGCCGGUCCCAAGCCCGGACAAAAGUGGAGGGGGCGG,0.834
21,AACACUGCCGAUGCCGGUCCCAAGCCCGGAUCAAAGUGGAGGGGGCGG,1.02
22,AACACUGCCGAUGCCGGUCCCAAGCCCGGAUACAAGUGGAGGGGGCGG,1.03
23,AACACUGCCGAUGCCGGUCCCAAGCCCGGAUAUAAGUGGAGGGGGCGG,0.963
24,AACACUGCCGAUGCCGGUCCCAAGCCCGGAUAAAAGUCGAGGGGGCGG,0.93
25,AACACUGCCGAUGCCGGUCCCAAGCCCGGAUAAAAGUUGAGGGGGCGG,0.91
26,AACACUGCCCAUGCCGGUUCCAAGCCCGGAUAAAAGUGGAGGGGGCGG,0.802
27,AACACUGCCCAUGCCGGUACCAAGCCCGGAUAAAAGUGGAGGGGGCGG,0.214

row,Variant,self-cleavage
1,AACACUGCCGAUGCUGGUCCCAAGCCCGGAUAAAAGUGGAGGGGGCGG,0.902
2,AACACUGCCUAUGCCGGUCCCAAGCCCGGUUAAAAGUGGAGGGGGCGG,0.922
3,AACACUGCCUAUGCCGGUCCCAAGCCCGGGUAAAAGUGGAGGGGGCGG,0.915
4,AACACUGCCUAUGCCGGUCCCAAGCCCGGCUAAAAGUGGAGGGGGCGG,0.784
5,AACACUGCCCACGCCGGUCCCAAGCCCGGAUAAAAGUGGAGGGGGCGG,0.929
6,AACACUGCCCAAGCCGGUCCCAAGCCCGGAUAAAAGUGGAGGGGGCGG,1.24
7,AACACUGCCGAUGCCAGUCCCAAGCCCGGAUAAAAGUGGAGGGGGCGG,1.13
8,AACACUGCCCAUGCCUGUCCCAAGCCCGGAUAAAAGUGGAGGGGGCGG,0.677
9,AACACUGCCGAUGCCGGUCCCAAGCCCUGAUAAAAGUGGAGGGGGCGG,1.04
10,AACACUGCCGAUGCCGGUCCCAAGCCCAGAUAAAAGUGGAGGGGGCGG,1.08
11,AACACUGCCGAUGCCGUUCCCAAGCCCGGAUAAAAGUGGAGGGGGCGG,0.388
12,AACACUGCCCAUGCCGGUCCCAAGCCCGAAUAAAAGUGGAGGGGGCGG,0.86
13,AACACUGCCCAUGCCGGUCCCAAGCCCGCAUAAAAGUGGAGGGGGCGG,0.845
14,AACACUGCCCAUGCCGGUCCCAAGCCCGUAUAAAAGUGGAGGGGGCGG,0.912
15,AACACUGCCCAUGCCGGUCCCAAGCCUGGAUAAAAGUGGAGGGGGCGG,0.932
16,AACACUGCCCAUGCCGGUCCCAAGCCCGGAUAAAAGUCGAGGGGGCGG,0.813
17,AACACUGCCCAUGCCGGUCCCAAGCCCGGAUAAAAGUUGAGGGGGCGG,0.832
18,AACACUGCCGAUGACGGUCCCAAGCCCGGAUAAAAGUGGAGGGGGCGG,0.975
19,AACACUGCCUAUGCCGGUCCCAUGCCCGGAUAAAAGUGGAGGGGGCGG,0.632
20,AACACUGCCUAUGCCGGUCCCAAGCCCGGAUACAAGUGGAGGGGGCGG,1.08
21,AACACUGCCCAUGCCGGUCCCAAGCCCGGAUAAAAUUGGAGGGGGCGG,0.722
22,AACACUGCCCAUGCCGGUCCCAAGCCCGGAUAAAAAUGGAGGGGGCGG,0.794
23,AACACUGCCCAUGCCGGUCCCAAGCCCGGAUAAAAGUGGAGGGGGCGU,1.01
24,AACACUGCCCAUGCCGGUCCCAAGCCCGGAUAAAAGUGGAGGGGGCGA,0.822
25,AACACUGCCCAUGCCGGUCCCAAGCCCUGAUAAAAGUGGAGGGGGCGG,0.811
26,AACACUGCCCAUGCCGGUCCCAAGCCCGGAUAAAAGUGAAGGGGGCGG,0.601
27,AACACUGCCCAUGCCGGUCCCAAGCCCGGAUAAAAGUGCAGGGGGCGG,0.172
